Read-outs that look alike come from different tables or passages of the source.
Legend:
Assay in all cases: NMR titration
[1] = molecular target: T1, N 1-209 (nucleocapsid N-terminal region: N-terminal flank, NTD and SR region) (SARS-CoV-2, UniProt P0DTC9 1-209)
[2] = molecular target: T1, N 1-209 (nucleocapsid N-terminal …); remark: listed apart in the source
[3] = molecular target: T1, N 1-209 (nucleocapsid N-terminal …); remark: listed apart in the source

Binder	Kd [1] [µM]	Kd [2] [µM]	also measured
AAUAA (ssRNA)	189 ± 22		
UAAUAAC (mixed, 2'-deoxy at terminal nucleotides 1 (dU) and 7 (dC); remainder RNA) [dUAAUAAdC]	138 ± 12		
GGUGGGAGCCUCUUUUAUGGGGUGACUGCC (structured_RNA) [H25 30-mer]		19.9 ± 4.7	
TAATAAC (ssDNA)		110 ± 8	
GUGUGUGCCUGU (ssRNA) [GU 12-mer]			Kd [3]: 6 ± 2 µM
